According to patent US20230257454A1 (STAIDSON BEIJING BIOPHARMACEUTICALS, published 2023):

What was measured:
C5a-Q71A = target: T1, C5a-Q71A; assay: ELISA on the coated C5a protein, antibody titrated, OD410
T1 single chain: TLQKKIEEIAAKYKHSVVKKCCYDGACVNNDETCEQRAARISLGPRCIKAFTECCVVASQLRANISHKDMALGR

C5a-K68A = target: T2, C5a-K68A; assay: as above
T2 single chain: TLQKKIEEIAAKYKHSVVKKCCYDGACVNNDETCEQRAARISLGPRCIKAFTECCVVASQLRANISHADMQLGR

C5a-L72A = target: T3, C5a-L72A; assay: as above
T3 single chain: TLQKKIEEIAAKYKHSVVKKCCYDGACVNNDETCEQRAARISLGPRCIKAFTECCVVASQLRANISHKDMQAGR

C5a-S66A = target: T4, C5a-S66A; assay: as above
T4 single chain: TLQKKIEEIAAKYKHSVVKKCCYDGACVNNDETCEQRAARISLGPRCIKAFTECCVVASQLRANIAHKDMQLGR

C5a-S66R = target: T5, C5a-S66R; assay: as above
T5 single chain: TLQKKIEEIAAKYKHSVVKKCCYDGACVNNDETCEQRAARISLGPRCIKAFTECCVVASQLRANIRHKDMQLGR

C5a-D69A = target: T6, C5a-D69A; assay: as above
T6 single chain: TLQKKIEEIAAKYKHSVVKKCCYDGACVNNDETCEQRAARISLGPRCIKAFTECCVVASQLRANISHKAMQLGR

C5a-A63R = target: T7, C5a-A63R; assay: as above
T7 single chain: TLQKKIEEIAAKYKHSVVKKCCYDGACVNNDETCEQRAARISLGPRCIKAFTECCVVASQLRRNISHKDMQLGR

C5a-H67A = target: T8, C5a-H67A; assay: as above
T8 single chain: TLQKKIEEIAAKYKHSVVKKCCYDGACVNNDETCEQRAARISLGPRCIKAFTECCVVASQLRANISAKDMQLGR

C5a-M70A = target: T9, C5a-M70A; assay: as above
T9 single chain: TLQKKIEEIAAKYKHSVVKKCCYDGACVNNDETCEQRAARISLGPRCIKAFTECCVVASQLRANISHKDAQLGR

[1] = target: T10, human C5a (source not stated) (human, UniProt P01031 678-751); assay: cell-based or functional assay
T10 sequence: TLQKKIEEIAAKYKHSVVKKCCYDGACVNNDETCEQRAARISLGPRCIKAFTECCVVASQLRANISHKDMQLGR

C5a-C27A = target: T11, C5a-C27A; assay: ELISA on the coated C5a protein, antibody titrated, OD410
T11 single chain: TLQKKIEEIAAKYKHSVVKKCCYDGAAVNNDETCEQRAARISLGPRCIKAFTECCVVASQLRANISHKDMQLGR

C5a-Y13A = target: T12, C5a-Y13A; assay: as above
T12 single chain: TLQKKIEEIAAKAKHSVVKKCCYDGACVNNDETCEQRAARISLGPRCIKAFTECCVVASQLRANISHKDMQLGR

C5a-K20A = target: T13, C5a-K20A; assay: as above
T13 single chain: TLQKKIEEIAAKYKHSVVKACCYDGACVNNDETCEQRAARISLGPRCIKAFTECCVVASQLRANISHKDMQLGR

C5a-V28R = target: T14, C5a-V28R; assay: as above
T14 single chain: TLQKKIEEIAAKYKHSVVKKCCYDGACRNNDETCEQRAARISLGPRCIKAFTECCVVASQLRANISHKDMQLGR

C5a-Y23A = target: T15, C5a-Y23A; assay: as above
T15 single chain: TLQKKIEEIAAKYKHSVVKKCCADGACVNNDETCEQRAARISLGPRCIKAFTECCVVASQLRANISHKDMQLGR

C5a-V28A = target: T16, C5a-V28A; assay: as above
T16 single chain: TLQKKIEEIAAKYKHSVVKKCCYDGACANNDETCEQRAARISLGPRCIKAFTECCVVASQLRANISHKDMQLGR

C5a-N29A = target: T17, C5a-N29A; assay: as above
T17 single chain: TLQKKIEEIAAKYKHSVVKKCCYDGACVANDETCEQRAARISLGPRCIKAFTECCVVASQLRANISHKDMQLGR

C5a-V28F = target: T18, C5a-V28F; assay: as above
T18 single chain: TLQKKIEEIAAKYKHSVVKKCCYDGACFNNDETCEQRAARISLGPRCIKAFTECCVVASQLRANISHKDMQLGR

C5a-L2A = target: T19, C5a-L2A; assay: as above
T19 single chain: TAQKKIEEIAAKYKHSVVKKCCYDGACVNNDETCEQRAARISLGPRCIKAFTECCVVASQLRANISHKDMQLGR

C5a-Q3A = target: T20, C5a-Q3A; assay: as above
T20 single chain: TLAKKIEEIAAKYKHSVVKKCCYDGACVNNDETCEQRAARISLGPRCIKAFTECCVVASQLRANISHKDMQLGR

C5a-T1A = target: T21, C5a-T1A; assay: as above
T21 single chain: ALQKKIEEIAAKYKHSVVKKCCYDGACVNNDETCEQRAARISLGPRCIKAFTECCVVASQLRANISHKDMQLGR

B1: Cab42-IgG1 (antibody, V domains shown)
VH: EMQLVESGGGLVQPGGSLRLSCAASGFTFSDYYMQWVRQAPGKGPEWVGLIRNKAVGETTQYAASVKGRFTISRDDSKNSVYLQMNSLKTEDTAVYYCVSRAGPPGLSWGQGVLVTVSS
VL: DIVMTQSPLSLPVTPGEPASISCRSSQSLLASDAYNYIDWYLQKPGQSPQLLIYGGSNRASGVPDRFSGSGSGTDFTLKISRVEAEDVGVYFCLQHRALPPTFGQGTKLEIK
notes: Full-length human IgG1; It was biotinylated in the peptide-Fc ELISA
B1: binds (C5a-Q71A); binds (C5a-K68A); binds (C5a-L72A). B1: binds (C5a-S66A); binds (C5a-S66R); binds (C5a-D69A). B1: binds (C5a-A63R); binds (C5a-H67A); binds (C5a-M70A). The “ROS IC50” value [1] was 0.78 nM, the binding result (C5a-C27A) was “binds” and the binding result (C5a-Y13A) was “binds”. B1: binds (C5a-K20A); binds (C5a-V28R); binds (C5a-Y23A). B1: binds (C5a-V28A); binds (C5a-N29A); binds (C5a-V28F). B1: binds (C5a-L2A); binds (C5a-Q3A); binds (C5a-T1A).
